Data on one molecule can be found in paper PMC13223232, “Structural basis for TRF2-RAP1 recruitment by EBNA1 at the EBV origin of replication” (Scientific Reports, 2025).

In data set [1] the target is EBNA1 DBD 401-607;TRF2 TRFH domain (Epstein-Barr virus;Homo sapiens?, UniProt P03211;Q15554 401-607;85-287, |). Briefly: EMSA; clear TRFH supershift; EMSA: 10 mM HEPES pH 7.5, 300 mM KCl (100 mM for TRFH), 5 mM MgCl2, 1 mM ZnCl2, 5 mM BME, 0.05% NP-40, 5% glycerol; 5 nM probe; 20 nM EBNA1 in TRF2/Rap1 titrations; 1.4% agarose; temperature not stated. The following applies: protein: recombinant;recombinant; tags: His6-SUMO (N-terminal, cleaved by ULP1);GST (N-terminal); chain copies: 4;2; label: 5'-IRD700 on both strands (EMSA); text calls it 60 bp). Background: Mobility shift assays separate free from complexed probe on a gel.
Chain of EBNA1 DBD 401-607;TRF2 TRFH domain (Q15554 85-287, one chain of several): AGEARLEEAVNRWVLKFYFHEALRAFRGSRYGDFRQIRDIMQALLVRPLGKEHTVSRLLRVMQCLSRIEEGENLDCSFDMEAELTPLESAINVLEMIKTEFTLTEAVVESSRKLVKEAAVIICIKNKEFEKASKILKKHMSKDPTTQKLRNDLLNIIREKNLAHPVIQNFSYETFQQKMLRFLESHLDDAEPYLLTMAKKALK

Data set [2] deals with EBNA1 459-607;TRF2 TRFH domain (Epstein-Barr virus;Homo sapiens?, UniProt P03211;Q15554 459-607;85-287, |). Described as above. The following applies: protein: recombinant;recombinant; tags: ;GST (N-terminal); chain copies: 4;2; label: 5'-IRD700 on both strands (EMSA); text calls it 60 bp).
Chain of EBNA1 459-607;TRF2 TRFH domain (Q15554 85-287, one chain of several): as above
The target of data set [3] is TRF2 full length;Rap1 full length (Homo sapiens?;Homo sapiens?, UniProt Q15554;Q9NYB0 1-542;1-399, |). Briefly: EMSA; discrete bandshift, no EBNA1; EMSA: 10 mM HEPES pH 7.5, 300 mM KCl (100 mM for TRFH), 5 mM MgCl2, 1 mM ZnCl2, 5 mM BME, 0.05% NP-40, 5% glycerol; 5 nM probe; 20 nM EBNA1 in TRF2/Rap1 titrations; 1.4% agarose; temperature not stated. The following applies: protein: recombinant;recombinant; tags: His6-SUMO (N-terminal, cleaved by ULP1);His6-SUMO (N-terminal, cleaved by ULP1); chain copies: 2;2; label: 5'-IRD700 on both strands (EMSA); text calls it 60 bp).

The target in data set [4] is EBNA1 DBD 401-607;TRF2 full length (Epstein-Barr virus;Homo sapiens?, UniProt P03211;Q15554 401-607;1-542, |). Briefly: EMSA; TRF2 titrated with EBNA1 401-607; binding increased roughly twofold; EMSA: 10 mM HEPES pH 7.5, 300 mM KCl (100 mM for TRFH), 5 mM MgCl2, 1 mM ZnCl2, 5 mM BME, 0.05% NP-40, 5% glycerol; 5 nM probe; 20 nM EBNA1 in TRF2/Rap1 titrations; 1.4% agarose; temperature not stated. The following applies: protein: recombinant;recombinant; tags: His6-SUMO (N-terminal, cleaved by ULP1);His6-SUMO (N-terminal, cleaved by ULP1); chain copies: 4;2; label: 5'-IRD700 on both strands (EMSA); text calls it 60 bp).

For data set [5], the target named is EBNA1 DBD 401-607;TRF2 full length;Rap1 full length (Epstein-Barr virus;Homo sapiens?;Homo …, UniProt P03211;Q15554;Q9NYB0 401-607;1-542;1-399, ||). Briefly: EMSA; TRF2/Rap1 titrated with EBNA1 401-607; binding increased roughly twofold; EMSA: 10 mM HEPES pH 7.5, 300 mM KCl (100 mM for TRFH), 5 mM MgCl2, 1 mM ZnCl2, 5 mM BME, 0.05% NP-40, 5% glycerol; 5 nM probe; 20 nM EBNA1 in TRF2/Rap1 titrations; 1.4% agarose; temperature not stated. The following applies: protein: recombinant;recombinant;recombinant; label: 5'-IRD700 on both strands (EMSA); text calls it 60 bp).

A further data set has as its target T1, Rap1 full length (UniProt Q9NYB0 1-399).
T1 sequence: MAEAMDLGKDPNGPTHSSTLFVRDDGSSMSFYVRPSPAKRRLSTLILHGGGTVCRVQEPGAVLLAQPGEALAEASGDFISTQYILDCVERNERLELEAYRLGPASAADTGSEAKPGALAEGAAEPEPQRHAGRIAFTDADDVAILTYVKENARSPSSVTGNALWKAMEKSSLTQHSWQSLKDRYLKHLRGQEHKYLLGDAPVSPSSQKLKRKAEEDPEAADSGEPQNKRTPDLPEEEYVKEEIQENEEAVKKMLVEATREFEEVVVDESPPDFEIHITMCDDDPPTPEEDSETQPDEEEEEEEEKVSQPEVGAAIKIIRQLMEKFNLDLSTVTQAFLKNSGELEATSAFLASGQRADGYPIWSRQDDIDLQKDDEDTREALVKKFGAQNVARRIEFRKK
Briefly: EMSA; up to 480 nM, no EBNA1; EMSA: 10 mM HEPES pH 7.5, 300 mM KCl (100 mM for TRFH), 5 mM MgCl2, 1 mM ZnCl2, 5 mM BME, 0.05% NP-40, 5% glycerol; 5 nM probe; 20 nM EBNA1 in TRF2/Rap1 titrations; 1.4% agarose; temperature not stated. The following applies: protein: recombinant; tags: His6-SUMO (N-terminal, cleaved by ULP1); label: 5'-IRD700 on both strands (EMSA); text calls it 60 bp).

B1: ½DS (EBV oriP dyad symmetry half) (dsDNA)
DNA 1: TAACCCTAATTCGATAGCATATGCTTCCCGTTGGGTAACATATGCTATTGAATTAGGGTTAG
DNA 2: CTAACCCTAATTCAATAGCATATGTTACCCAACGGGAAGCATATGCTATCGAATTAGGGTTA
Consider B1, for which the binding result in data set [1] is “binds”; in data set [2], “binds”; in data set [3], “binds”; in data set [4], “binds”; in data set [5], “binds”; in the data set with Rap1 full length, “no binding”.
